Test results from US9050248B2, “Methods of delivering stable topical drug compositions” (Transdermal Biotechnology, Inc., priority 2002, dated 2015).

Columns and labels:
[1] = Skin penetration on topical application of somatotropin composition; details: composition topically applied
Protocol: A drug delivery composition formulated with somatotropin was formulated in one trial with 85% phosphatidylcholine to which lipoic acid and ascorbyl palmitate were added.

[2] = Storage stability of insulin by RP-HPLC and HPCE (Example 1); assay type: physicochemical; details: stored at room temperature
Protocol: This mixture was then divided in half, half of which was stored at 4° C., and the other half stored at room temperature.

[3] = Storage stability of insulin by RP-HPLC and HPCE (Example 2); assay type: physicochemical

Row | Substance | skin penetration [1] | time at which denaturing started [2] [days] | time stable (RP-HPLC and HPCE) ([3]; stored at 4° C.) [weeks] | time at which denaturing started ([3]; stored at room temperature) [week]
1 | Somatotropin: pituitary growth hormone, formulated with 85% phosphatidylcholine, lipoic acid and ascorbyl palmitate | appeared to penetrate the skin well |  |  | 
2 | insulin standards: recombinant human insulin in 0.01 N HCl, 1 mg/ml (Example 1) or 5 mg/ml (Example 2) |  | ≤ 7 | 22 | ≤ 1
